Source: patent US20140087995A1 (published 2014)
Numbered stars: 1 amine (or outer) side, 2 acyl side, 3 side chain; on linkers, the order of the positions; unused ones are H or OH. Bridge positions count the residues as written; N and C are the ends. Side chains are listed from the residue outwards. Ends that are not written are not given here. * marks the point of attachment. C20 diacid = O=C(O)CCCCCCCCCCCCCCCCCCC(=O)*; γGlu = O=C(O)[C@H](CCC(=O)[*:2])N[*:1]

T1: human calcitonin receptor (human, UniProt P30988 25-474)
T1 sequence (looked up): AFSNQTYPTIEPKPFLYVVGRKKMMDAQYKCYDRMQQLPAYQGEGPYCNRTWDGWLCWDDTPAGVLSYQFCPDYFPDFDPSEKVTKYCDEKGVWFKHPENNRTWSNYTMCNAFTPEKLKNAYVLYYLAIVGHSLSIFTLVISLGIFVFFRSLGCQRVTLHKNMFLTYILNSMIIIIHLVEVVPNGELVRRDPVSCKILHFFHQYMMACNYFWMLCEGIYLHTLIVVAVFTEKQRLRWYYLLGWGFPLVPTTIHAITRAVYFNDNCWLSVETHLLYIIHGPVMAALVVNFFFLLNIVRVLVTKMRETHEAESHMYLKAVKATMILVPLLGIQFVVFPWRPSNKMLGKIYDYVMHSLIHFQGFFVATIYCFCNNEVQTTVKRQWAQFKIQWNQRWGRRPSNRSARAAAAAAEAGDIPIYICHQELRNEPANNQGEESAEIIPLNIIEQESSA


Biological target: T1, human calcitonin receptor
Experiment: cell-based or functional assay

Binder | hCTR funct. EC50 [nM]
K([γGlu-C20 diacid])CNTATCATQRLANFLRHSSPNFGAIPSSTNVGSHTY-NH2 (disulfide 2-7; N-terminus assumed; SMILES CC[C@H](C)[C@H](NC(=O)[C@H](C)NC(=O)CNC(=O)[C@H](Cc1ccccc1)NC(=O)[C@H](CC(N)=O)NC(=O)[C@@H]1CCCN1C(=O)[C@H](CO)NC(=O)[C@H](CO)NC(=O)[C@H](Cc1c[nH]cn1)NC(=O)[C@H](CCCNC(=N)N)NC(=O)[C@H](CC(C)C)NC(=O)[C@H](Cc1ccccc1)NC(=O)[C@H](CC(N)=O)NC(=O)[C@H](C)NC(=O)[C@H](CC(C)C)NC(=O)[C@H](CCCNC(=N)N)NC(=O)[C@H](CCC(N)=O)NC(=O)[C@@H](NC(=O)[C@H](C)NC(=O)[C@@H]1CSSC[C@H](NC(=O)[C@@H](N)CCCCNC(=O)CC[C@H](NC(=O)CCCCCCCCCCCCCCCCCCC(=O)O)C(=O)O)C(=O)N[C@@H](CC(N)=O)C(=O)N[C@@H]([C@@H](C)O)C(=O)N[C@@H](C)C(=O)N[C@@H]([C@@H](C)O)C(=O)N1)[C@@H](C)O)C(=O)N1CCC[C@H]1C(=O)N[C@@H](CO)C(=O)N[C@@H](CO)C(=O)N[C@H](C(=O)N[C@@H](CC(N)=O)C(=O)N[C@H](C(=O)NCC(=O)N[C@@H](CO)C(=O)N[C@@H](Cc1c[nH]cn1)C(=O)N[C@H](C(=O)N[C@@H](Cc1ccc(O)cc1)C(N)=O)[C@@H](C)O)C(C)C)[C@@H](C)O, analogue of human amylin; also called compound 60) [N^ε1-[(4S)-4-carboxy-4-(19-carboxynonadecanoylamino)butanoyl]-[Arg17,Pro21,Pro27,His35]-h-amylin] | 5.36
K([γGlu-C20 diacid])CNTATCATQRLAEFLRHSSPNFGAIPSSTNVGSRTY-NH2 (disulfide 2-7; N-terminus assumed; SMILES CC[C@H](C)[C@H](NC(=O)[C@H](C)NC(=O)CNC(=O)[C@H](Cc1ccccc1)NC(=O)[C@H](CC(N)=O)NC(=O)[C@@H]1CCCN1C(=O)[C@H](CO)NC(=O)[C@H](CO)NC(=O)[C@H](Cc1c[nH]cn1)NC(=O)[C@H](CCCNC(=N)N)NC(=O)[C@H](CC(C)C)NC(=O)[C@H](Cc1ccccc1)NC(=O)[C@H](CCC(=O)O)NC(=O)[C@H](C)NC(=O)[C@H](CC(C)C)NC(=O)[C@H](CCCNC(=N)N)NC(=O)[C@H](CCC(N)=O)NC(=O)[C@@H](NC(=O)[C@H](C)NC(=O)[C@@H]1CSSC[C@H](NC(=O)[C@@H](N)CCCCNC(=O)CC[C@H](NC(=O)CCCCCCCCCCCCCCCCCCC(=O)O)C(=O)O)C(=O)N[C@@H](CC(N)=O)C(=O)N[C@@H]([C@@H](C)O)C(=O)N[C@@H](C)C(=O)N[C@@H]([C@@H](C)O)C(=O)N1)[C@@H](C)O)C(=O)N1CCC[C@H]1C(=O)N[C@@H](CO)C(=O)N[C@@H](CO)C(=O)N[C@H](C(=O)N[C@@H](CC(N)=O)C(=O)N[C@H](C(=O)NCC(=O)N[C@@H](CO)C(=O)N[C@@H](CCCNC(=N)N)C(=O)N[C@H](C(=O)N[C@@H](Cc1ccc(O)cc1)C(N)=O)[C@@H](C)O)C(C)C)[C@@H](C)O, analogue of human amylin; also called compound 51) | 5.22
K([γGlu-C20 diacid])CNTATCATQRLAHFLRHSSPNFGAIPSSTNVGSNTY-NH2 (disulfide 2-7; N-terminus assumed; SMILES CC[C@H](C)[C@H](NC(=O)[C@H](C)NC(=O)CNC(=O)[C@H](Cc1ccccc1)NC(=O)[C@H](CC(N)=O)NC(=O)[C@@H]1CCCN1C(=O)[C@H](CO)NC(=O)[C@H](CO)NC(=O)[C@H](Cc1c[nH]cn1)NC(=O)[C@H](CCCNC(=N)N)NC(=O)[C@H](CC(C)C)NC(=O)[C@H](Cc1ccccc1)NC(=O)[C@H](Cc1c[nH]cn1)NC(=O)[C@H](C)NC(=O)[C@H](CC(C)C)NC(=O)[C@H](CCCNC(=N)N)NC(=O)[C@H](CCC(N)=O)NC(=O)[C@@H](NC(=O)[C@H](C)NC(=O)[C@@H]1CSSC[C@H](NC(=O)[C@@H](N)CCCCNC(=O)CC[C@H](NC(=O)CCCCCCCCCCCCCCCCCCC(=O)O)C(=O)O)C(=O)N[C@@H](CC(N)=O)C(=O)N[C@@H]([C@@H](C)O)C(=O)N[C@@H](C)C(=O)N[C@@H]([C@@H](C)O)C(=O)N1)[C@@H](C)O)C(=O)N1CCC[C@H]1C(=O)N[C@@H](CO)C(=O)N[C@@H](CO)C(=O)N[C@H](C(=O)N[C@@H](CC(N)=O)C(=O)N[C@H](C(=O)NCC(=O)N[C@@H](CO)C(=O)N[C@@H](CC(N)=O)C(=O)N[C@H](C(=O)N[C@@H](Cc1ccc(O)cc1)C(N)=O)[C@@H](C)O)C(C)C)[C@@H](C)O, analogue of human amylin; also called compound 70) [N^ε1-[(4S)-4-carboxy-4-(19-carboxynonadecanoylamino)butanoyl]-[His14,Arg17,Pro21,Pro27]-h-amylin] | 0.715
K([γGlu-C20 diacid])CNTATCATQRLANFLRHSSPNFGAIPSSTNVGSKTY-NH2 (disulfide 2-7; N-terminus assumed; SMILES CC[C@H](C)[C@H](NC(=O)[C@H](C)NC(=O)CNC(=O)[C@H](Cc1ccccc1)NC(=O)[C@H](CC(N)=O)NC(=O)[C@@H]1CCCN1C(=O)[C@H](CO)NC(=O)[C@H](CO)NC(=O)[C@H](Cc1c[nH]cn1)NC(=O)[C@H](CCCNC(=N)N)NC(=O)[C@H](CC(C)C)NC(=O)[C@H](Cc1ccccc1)NC(=O)[C@H](CC(N)=O)NC(=O)[C@H](C)NC(=O)[C@H](CC(C)C)NC(=O)[C@H](CCCNC(=N)N)NC(=O)[C@H](CCC(N)=O)NC(=O)[C@@H](NC(=O)[C@H](C)NC(=O)[C@@H]1CSSC[C@H](NC(=O)[C@@H](N)CCCCNC(=O)CC[C@H](NC(=O)CCCCCCCCCCCCCCCCCCC(=O)O)C(=O)O)C(=O)N[C@@H](CC(N)=O)C(=O)N[C@@H]([C@@H](C)O)C(=O)N[C@@H](C)C(=O)N[C@@H]([C@@H](C)O)C(=O)N1)[C@@H](C)O)C(=O)N1CCC[C@H]1C(=O)N[C@@H](CO)C(=O)N[C@@H](CO)C(=O)N[C@H](C(=O)N[C@@H](CC(N)=O)C(=O)N[C@H](C(=O)NCC(=O)N[C@@H](CO)C(=O)N[C@@H](CCCCN)C(=O)N[C@H](C(=O)N[C@@H](Cc1ccc(O)cc1)C(N)=O)[C@@H](C)O)C(C)C)[C@@H](C)O, analogue of human amylin; also called compound 35) [N^ε1-[(4S)-4-carboxy-4-(19-carboxynonadecanoylamino)butanoyl]-[Arg17,Pro21,Pro27,Lys35]-h-amylin] | 5.46
K([γGlu-C20 diacid])CNTATCATQRLAHFLRHSSPNFGAIPSSTNVGSHTY-NH2 (disulfide 2-7; N-terminus assumed; SMILES CC[C@H](C)[C@H](NC(=O)[C@H](C)NC(=O)CNC(=O)[C@H](Cc1ccccc1)NC(=O)[C@H](CC(N)=O)NC(=O)[C@@H]1CCCN1C(=O)[C@H](CO)NC(=O)[C@H](CO)NC(=O)[C@H](Cc1c[nH]cn1)NC(=O)[C@H](CCCNC(=N)N)NC(=O)[C@H](CC(C)C)NC(=O)[C@H](Cc1ccccc1)NC(=O)[C@H](Cc1c[nH]cn1)NC(=O)[C@H](C)NC(=O)[C@H](CC(C)C)NC(=O)[C@H](CCCNC(=N)N)NC(=O)[C@H](CCC(N)=O)NC(=O)[C@@H](NC(=O)[C@H](C)NC(=O)[C@@H]1CSSC[C@H](NC(=O)[C@@H](N)CCCCNC(=O)CC[C@H](NC(=O)CCCCCCCCCCCCCCCCCCC(=O)O)C(=O)O)C(=O)N[C@@H](CC(N)=O)C(=O)N[C@@H]([C@@H](C)O)C(=O)N[C@@H](C)C(=O)N[C@@H]([C@@H](C)O)C(=O)N1)[C@@H](C)O)C(=O)N1CCC[C@H]1C(=O)N[C@@H](CO)C(=O)N[C@@H](CO)C(=O)N[C@H](C(=O)N[C@@H](CC(N)=O)C(=O)N[C@H](C(=O)NCC(=O)N[C@@H](CO)C(=O)N[C@@H](Cc1c[nH]cn1)C(=O)N[C@H](C(=O)N[C@@H](Cc1ccc(O)cc1)C(N)=O)[C@@H](C)O)C(C)C)[C@@H](C)O, analogue of human amylin; also called compound 66) | 0.542
K([γGlu-C20 diacid])CNTATCATQRLAHFLRHSSPNFGAIPSSTPVGSNTY-NH2 (disulfide 2-7; N-terminus assumed; SMILES CC[C@H](C)[C@H](NC(=O)[C@H](C)NC(=O)CNC(=O)[C@H](Cc1ccccc1)NC(=O)[C@H](CC(N)=O)NC(=O)[C@@H]1CCCN1C(=O)[C@H](CO)NC(=O)[C@H](CO)NC(=O)[C@H](Cc1c[nH]cn1)NC(=O)[C@H](CCCNC(=N)N)NC(=O)[C@H](CC(C)C)NC(=O)[C@H](Cc1ccccc1)NC(=O)[C@H](Cc1c[nH]cn1)NC(=O)[C@H](C)NC(=O)[C@H](CC(C)C)NC(=O)[C@H](CCCNC(=N)N)NC(=O)[C@H](CCC(N)=O)NC(=O)[C@@H](NC(=O)[C@H](C)NC(=O)[C@@H]1CSSC[C@H](NC(=O)[C@@H](N)CCCCNC(=O)CC[C@H](NC(=O)CCCCCCCCCCCCCCCCCCC(=O)O)C(=O)O)C(=O)N[C@@H](CC(N)=O)C(=O)N[C@@H]([C@@H](C)O)C(=O)N[C@@H](C)C(=O)N[C@@H]([C@@H](C)O)C(=O)N1)[C@@H](C)O)C(=O)N1CCC[C@H]1C(=O)N[C@@H](CO)C(=O)N[C@@H](CO)C(=O)N[C@H](C(=O)N1CCC[C@H]1C(=O)N[C@H](C(=O)NCC(=O)N[C@@H](CO)C(=O)N[C@@H](CC(N)=O)C(=O)N[C@H](C(=O)N[C@@H](Cc1ccc(O)cc1)C(N)=O)[C@@H](C)O)C(C)C)[C@@H](C)O, analogue of human amylin; also called compound 62) | 0.539
